We go through 2 substances from article PMC8684735.

This test deals with chicken F-actin (chicken) (UniProt P68139). The experiment in a line: co-sedimentation.

As for “Drosophila indirect flight muscle myosin isoform (IFI) subfragment-1 (S1), S532P mutant (domain or fragment)”, the Kd (usually the concentration at which binding is half-saturated) is 2 µM. For “Drosophila indirect flight muscle myosin isoform (IFI) subfragment-1 (S1), wild-type control (domain or fragment)” the value was 1.26 µM.
